Data on 37 sequences can be found in the Immune Epitope Database (IEDB).

What is called Kd is the concentration at which binding is half-saturated.

Common to all, as to experiment: IEDB peptide-MHC binding, purified MHC/competitive/radioactivity; filed as Kd, often an IC50 or EC50 that approximates it; ≥ and ≤ were set here for values at or beyond the usual limits of such assays
Assay [1] deals with HLA-A*68:01.
The target of assay [2] is HLA-A*11:01.
Assay [3] addresses HLA-A*31:01.
The target of assay [4] is HLA-A*33:01.
For assay [5], the target named is HLA-A*03:01.
Setting [6] is: source organism: Vaccinia virus Copenhagen.
Setting [7] is: source organism: Vaccinia virus WR.
[8] abbreviates: source organism: Lymphocytic choriomeningitis virus (strain Traub).
[9] abbreviates: source organism: Lassa virus Josiah.
Where [10] appears, read: source organism: Triticum aestivum.
[11] abbreviates: source organism: SARS coronavirus Tor2.
[12] abbreviates: source organism: Dengue virus 2 Jamaica/1409/1983.
[13] abbreviates: source organism: Mammarenavirus juninense.

Bounds are passed on as bounds.

Take KSVLDIISSK: the Kd in assay [1] (setting [6]) is 0.267 µM; in assay [2] (setting [6]), 0.00896 µM; in assay [3] (setting [6]), 0.152 µM; in assay [4] (setting [6]), 19.9 µM; in assay [5] (setting [6]) it was 0.0245 µM.
Take GIGTFLHYK: the Kd worked out at 0.024 µM in assay [1] (setting [7]); 0.000585 µM in assay [2] (setting [7]); 0.0657 µM in assay [3] (setting [7]); 3.78 µM in assay [4] (setting [7]); 0.0078 µM in assay [5] (setting [7]).
The corresponding values for VMHINSPFK are 0.0793 µM, 0.000224 µM, 0.0199 µM, 10.7 µM and 0.0018 µM.
For the sequence IASKINNNR, the Kd was 0.00186 µM in assay [1] (setting [7]); 0.329 µM in assay [2] (setting [7]); 0.0288 µM in assay [3] (setting [7]); 0.0766 µM in assay [4] (setting [7]); 13.2 µM in assay [5] (setting [7]).
As for KLKHRDGFTK, the dissociation constant (Kd) in assay [1] (setting [6]) is no less than 38.7 µM; in assay [2] (setting [6]), 0.131 µM; in assay [3] (setting [6]) it was 0.726 µM; in assay [4] (setting [6]), no less than 29.1 µM; in assay [5] (setting [6]), 0.0373 µM.
On to KCHDHYLCR, for which the Kd in assay [1] (setting [8]) is no less than 48 µM; in assay [2] (setting [8]), 3.27 µM; in assay [3] (setting [8]), 0.109 µM; in assay [4] (setting [8]) it was 1.35 µM; in assay [5] (setting [8]), 7.63 µM.
In the case of ISRDELWAR, the dissociation constant (Kd) in assay [1] (setting [7]) was 0.946 µM; in assay [2] (setting [7]), no less than 22.2 µM; in assay [3] (setting [7]), 0.0478 µM; in assay [4] (setting [7]), 0.00169 µM; in assay [5] (setting [7]), no less than 78 µM.
For the sequence YALINLVQY, the dissociation constant Kd in assay [1] (setting [7]) was no less than 51.8 µM; in assay [2] (setting [7]), no less than 77.9 µM; in assay [3] (setting [7]) it was no less than 20.5 µM; in assay [4] (setting [7]) it was no less than 77.7 µM; in assay [5] (setting [7]), no less than 78 µM.
On to MLRLFDFNK, for which the Kd was determined as 0.571 µM in assay [1] (setting [9]); 0.05 µM in assay [2] (setting [9]); 0.129 µM in assay [3] (setting [9]); 0.527 µM in assay [4] (setting [9]); 0.0846 µM in assay [5] (setting [9]).
Turning to NSISARALK, the Kd in assay [1] (setting [7]) worked out at 0.0049 µM; in assay [2] (setting [7]) it was 0.00399 µM; in assay [3] (setting [7]), 0.0111 µM; in assay [4] (setting [7]) it was 0.00653 µM; in assay [5] (setting [7]), 0.0787 µM.
Consider QQQQQQQQK, for which the Kd in assay [1] (setting [10]) was no less than 31.3 µM; in assay [2] (setting [10]), 0.845 µM; in assay [3] (setting [10]), 5.38 µM; in assay [4] (setting [10]), no less than 56.4 µM; in assay [5] (setting [10]), 2.11 µM.
GSYIALDSGR: the Kd in assay [1] (setting [9]) stood at 0.276 µM; in assay [2] (setting [9]), 0.15 µM; in assay [3] (setting [9]) it was 0.0783 µM; in assay [4] (setting [9]) it was 1.16 µM; in assay [5] (setting [9]), 4.23 µM.
Take VQIDRLITGR: the dissociation constant (Kd) in assay [1] (setting [11]) is 1.03 µM; in assay [2] (setting [11]) it was 3.02 µM; in assay [3] (setting [11]), 0.0436 µM; in assay [4] (setting [11]) it was 0.912 µM; in assay [5] (setting [11]), 1.99 µM.
The corresponding values for ALGGSIAVK are 11.2 µM, 0.171 µM, 12.5 µM, no less than 77.7 µM and 0.0152 µM.
Consider RSLQTIASK, for which the Kd in assay [1] (setting [7]) was 0.187 µM; in assay [2] (setting [7]), 0.00732 µM; in assay [3] (setting [7]), 0.0043 µM; in assay [4] (setting [7]), no less than 77.7 µM; in assay [5] (setting [7]), 0.0015 µM.
The corresponding values for VTDLENRLK are 7.25 µM, 0.0259 µM, 13.6 µM, 13.1 µM and 2.25 µM.
In the case of HTSVSAKQLR, the Kd in assay [1] (setting [7]) was determined as 0.0163 µM; in assay [2] (setting [7]), 0.274 µM; in assay [3] (setting [7]), 0.162 µM; in assay [4] (setting [7]), 1.14 µM; in assay [5] (setting [7]), 2.51 µM.
The corresponding values for CAMPYNILDR are 0.00875 µM, 0.187 µM, 0.301 µM, 0.64 µM and 7.24 µM.
In the same order, the values of RMLDTSEKY are no less than 77.7 µM, 9.87 µM, no less than 66.2 µM, no less than 68.1 µM and 4.98 µM.
For the sequence SINVTIPEQY, the dissociation constant Kd in assay [1] (setting [7]) stood at 5.2 µM; in assay [2] (setting [7]) it was 0.783 µM; in assay [3] (setting [7]), 8.19 µM; in assay [4] (setting [7]), 12.8 µM; in assay [5] (setting [7]), 19.1 µM.
In the same order, the values of LSIVVDINK are 0.0151 µM, 0.0238 µM, 4.13 µM, no less than 77.7 µM and 5.12 µM.
For the sequence ILFMEMFFDY, the Kd in assay [1] (setting [7]) was 0.845 µM; in assay [2] (setting [7]), 0.121 µM; in assay [3] (setting [7]), 5.47 µM; in assay [4] (setting [7]), no less than 64.3 µM; in assay [5] (setting [7]) it was 0.0316 µM.
The corresponding values for QTIASKKDK are 0.265 µM, 0.766 µM, 0.589 µM, no less than 77.7 µM and 0.317 µM.
In the same order, the values of HIKTIAVSVY are 5.82 µM, 8.24 µM, 0.914 µM, 13.8 µM and 0.257 µM.
In the same order, the values of FVSLVKKNK are 0.215 µM, 0.12 µM, no less than 77.9 µM, no less than 33.6 µM and no less than 78 µM.
For the sequence IVQMLSDTLK, the Kd in assay [1] (setting [11]) is 1.18 µM; in assay [2] (setting [11]) it was 0.0644 µM; in assay [3] (setting [11]), 3.82 µM; in assay [4] (setting [11]), no less than 22.5 µM; in assay [5] (setting [11]), 0.292 µM.
As to PSTDVNKQNK, the Kd in assay [1] (setting [7]) was no less than 26.8 µM; in assay [2] (setting [7]) it was 3.61 µM; in assay [3] (setting [7]), 4.78 µM; in assay [4] (setting [7]) it was no less than 70 µM; in assay [5] (setting [7]) it was 1.26 µM.
As to ALKYLPIDK, the equilibrium dissociation constant (Kd) in assay [1] (setting [11]) was 2.37 µM; in assay [2] (setting [11]) it was 0.878 µM; in assay [3] (setting [11]), 6.57 µM; in assay [4] (setting [11]), no less than 48.5 µM; in assay [5] (setting [11]), 0.299 µM.
The corresponding values for SAGFSLWIY are 4.04 µM, 0.116 µM, 0.393 µM, 17.3 µM and 0.572 µM.
In the same order, the values of ATSTGNYNYK are 0.00961 µM, 0.00138 µM, 0.0695 µM, no less than 26.3 µM and 0.00434 µM.
In the case of MLNRVQILMK, the equilibrium dissociation constant (Kd) in assay [1] (setting [7]) came to 0.698 µM; in assay [2] (setting [7]) it was 0.13 µM; in assay [3] (setting [7]), 0.619 µM; in assay [4] (setting [7]) it was 2.78 µM; in assay [5] (setting [7]) it was 0.00128 µM.
For the sequence AFQHQNSKK, the dissociation constant Kd in assay [1] (setting [11]) was 3.92 µM; in assay [2] (setting [11]), 3 µM; in assay [3] (setting [11]), 0.672 µM; in assay [4] (setting [11]), no less than 22.6 µM; in assay [5] (setting [11]), 13.9 µM.
On to ITYKCPLLR, for which the Kd in assay [1] (setting [12]) was determined as 0.0594 µM; in assay [2] (setting [12]), 0.0639 µM; in assay [3] (setting [12]) it was 0.0116 µM; in assay [4] (setting [12]) it was 0.2 µM; in assay [5] (setting [12]) it was 0.0161 µM.
For CFKEASFSKR, the Kd in assay [1] (setting [7]) was 1.64 µM; in assay [2] (setting [7]), no less than 43.6 µM; in assay [3] (setting [7]), 0.0359 µM; in assay [4] (setting [7]), 0.0614 µM; in assay [5] (setting [7]) it was 9.16 µM.
The corresponding values for ESRDRKWLYY are 10.8 µM, no less than 59 µM, no less than 70 µM, no less than 70 µM and 11.5 µM.
Turning to LMAYANQIHH, the Kd in assay [1] (setting [13]) was no less than 24.2 µM; in assay [2] (setting [13]) it was 9.79 µM; in assay [3] (setting [13]), no less than 24.5 µM; in assay [4] (setting [13]), no less than 53.9 µM; in assay [5] (setting [13]), 0.523 µM.
Take TLVPQEHYVR: the dissociation constant (Kd) in assay [1] (setting [11]) came to 0.445 µM; in assay [2] (setting [11]), 0.436 µM; in assay [3] (setting [11]), 0.989 µM; in assay [4] (setting [11]), 1.91 µM; in assay [5] (setting [11]), 0.13 µM.
